# Measurements: patent US20190359693A1
# Substitutions are numbered along the chain they refer to.
# B1: SD2020 (VHH)
# VHH: EVQLVESGGGLVQPGGSLRLSCAAAGGAFNRQLVAWFRQAPGKKREFVATVTTSGGSSYYADSVKGRFTISRDTAKNTVALQMNSLKAEDAAVYYCAARDSFTVAPYYPPESYAYWGQGTQVTVSS
# B2: SD3013 (VHH)
# VHH: EVQLVESGGGVVQPGGSLRLSCAASISIFDIYAMDWYRQAPGKQRELVATSFRDGSTYYADSVKGRFTISRDNSKNTLYLQMNSLRAEDTAVYLCHVSLYRDPLGVAGGMGVYWGKGALVTVSS
# B3: SD3029 (VHH)
# VHH: B2 VHH with V11L, A24V, E46D, Y58N, S74A, R86K, A87P, M110L
# B4: SD3030 (VHH)
# VHH: B2 VHH with V11L, A24V, E46D, Y58N, S74A, R86K, A87P, M110I
# B5: SD3022 (VHH)
# VHH: B2 VHH with T50V, A87P, M110I
# B6: SD3079 (VHH)
# VHH: B2 VHH with T50V, L94Y, M110L, K116Q, A118T
# B7: SD3021 (VHH)
# VHH: B2 VHH with T50V, A87P, M110L
# B8: SD3119 (VHH)
# VHH: B2 VHH with E1Q, T50V, L94Y, M110I, K116Q, A118T
# B9: MD2402 (protein)
# chain: EVQLVESGGGLVQPGGSLRLSCAVSISIFDIYAMDWYRQAPGKQRDLVATSFRDGSTNYADSVKGRFTISRDNAKNTLYLQMNSLKPEDTAVYLCHVSLYRDPLGVAGGMGVYWGKGALVTVSSAAAGGGGSGGGGSGGGGSGGGGSGGGGSGGGGSGGGGSEVQLVESGGGLVQAGGSLKLSCAASGRTYAMGWFRQAPGKEREFVAHINALGTRTYYSDSVKGRFTISRDNAKNTEYLEMNNLKPEDTAVYYCTAQGQWRAAPVAVAAEYEFWGQGTQVTVSSLINLEGGGGSGGGGSGGGGSGGGGSGGGGSGGGGSGGGGSPAGEVQLVESGGGLVQPGGSLRLSCAATGFTLENKAIGWFRQTPGSEREGVLCISKSGSWTYYTDSMRGRFTISRDNAENTVYLQMDSLKPEDTAVYYCATTTAGGGLCWDGTTFSRLASSWGQGTQVTVSSAAAGGGGSGGGGSGGGGSGGGGSGGGGSGGGGSGGGGSEVQLVESGGGLVQPGGSLKLSCAASGFTFSTSWMYWLRQAPGKGLEWVSVINTDGGTYYADSVKDRFTISRDNAKDTLYLQMSSLKSEDTAVYYCAKDWGGPEPTRGQGTQVTVSS
# B10: SD1017 (VHH)
# VHH: EVQLVESGGGLVQAGGSLRLSCAASGRTYAMAWFRQAPGKEREFVAHINALGTRAYYSDSVEGRFTISRDNAKNTGYLQMNSLEPEDTAVYVCAAGGQWRAAPVADAAQYDFWGQGTQVTVSS
# B11: SD1049 (VHH)
# VHH: EVQLVESGGGLVQAGGSLRLSCAASGRTLSLYSVGWFRQAPGKEREFVATIGWNSGRTFYVDSMKGRFTISRDNAKNTVYLQMNDLKVEDTAVYYCAAAKGPLRLSNQADYWGQGTQVTVSS
# B12: SD1070 (VHH)
# VHH: EVQLVESGGGLVQAGGSLRISCAASGRTFSIYSMGWFRQAPGKEREFVATIGWNSGRTFYADSMKERFTISADNARNTLYLQMNSLKFEDTAVYYCAAAKGPLRLSSQADYWGQGTQVTVSS
# B13: SD1076 (VHH)
# VHH: EVQLVESGGGLVQAGGSLTLSCAGSGFAFSIATMGWYRQAPGKQRELVADITSGGSTNYADSVKGRFTISRDNAKNTVYLQMNSLKPEDTAVYYCNADSLATGWRQYSYWGKGTQVTVSS
# B14: SD3093 (VHH)
# VHH: EVQLVESGGGLVQPGGSLRLSCAISGLSLDTYAVGWFRQAPGKEREGVSCISSGHGMTYYADSVKGRFTISTDNSKNTVYLQMNSLRAEDTAVYYCATESRYYCSDNWPAPQRYIYWGQGTLVTVSS
# B15: MD2404 (bispecific antibody)
# chain: EVQLVESGGGLVQPGGSLRLSCAVSISIFDIYAMDWYRQAPGKQRDLVATSFRDGSTNYADSVKGRFTISRDNAKNTLYLQMNSLKPEDTAVYLCHVSLYRDPLGVAGGMGVYWGKGALVTVSSAAAGGGGSGGGGSGGGGSGGGGSGGGGSGGGGSGGGGSEVQLVESGGGLVQAGGSLKLSCAASGRTYAMGWFRQAPGKEREFVAHINALGTRTYYSDSVKGRFTISRDNAKNTEYLEMNNLKPEDTAVYYCTAQGQWRAAPVAVAAEYEFWGQGTQVTVSSLINLEGGGGSGGGGSGGGGSGGGGSGGGGSGGGGSGGGGSPAGEVQLVESGGGLVQPGGSLKLSCAASGFTFSTSWMYWLRQAPGKGLEWVSVINTDGGTYYADSVKDRFTISRDNAKDTLYLQMSSLKSEDTAVYYCAKDWGGPEPTRGQGTQVTVSSAAAGGGGSGGGGSGGGGSGGGGSGGGGSGGGGSGGGGSEVQLVESGGGLVQPGGSLKLSCAASGFTFSTSWMYWLRQAPGKGLEWVSVINTDGGTYYADSVKDRFTISRDNAKDTLYLQMSSLKSEDTAVYYCAKDWGGPEPTRGQGTQVTVSS
# Assays:
# Assay in all cases: cell-based or functional assay
# [1] = target: HA of H7N3 A/NIBRG/60 (A/mallard/NL/12/00) (influenza A virus)
# [2] = target: HA of H5N1 A/Vietnam/1194/04 (influenza A virus)
# [3] = target: HA of H3N2 A/Brisbane/10/2007 (influenza A virus)
# [4] = target: HA of H3N2 A/Wisconsin/67/2005 (influenza A virus)
# [5] = target: hemagglutinin (HA) of influenza A/Hong Kong/1/68 (H3N2) (influenza A virus A/Hong Kong/1/68 (H3N2)) (UniProt Q91MA7)
# [6] = target: hemagglutinin (HA) of influenza A/Vietnam/1194/04 (H5N1) (influenza A virus A/Vietnam/1194/04 (H5N1))
# [7] = target: hemagglutinin (HA) of influenza A/New Caledonia/20/99 (H1N1) (influenza A virus A/New Caledonia/20/99 (H1N1))
# [8] = target: hemagglutinin (HA) of influenza A/Brisbane/10/07 (H3N2) (influenza A virus A/Brisbane/10/07 (H3N2))
# [9] = target: hemagglutinin (HA) of influenza A/California/07/09 (H1N1) (influenza A virus A/California/07/09 (H1N1))
# [10] = target: hemagglutinin (HA) of influenza virus B/Lee/40 (Old) (influenza B virus) (UniProt P03460)
# [11] = target: hemagglutinin (HA) of influenza virus H5N1 A/Vietnam/1194/04 (influenza A virus)
# [12] = target: hemagglutinin (HA) of influenza virus H7N3 A/NIBRG/60 (A/mallard/Netherlands/12/00) (influenza A virus)
# [13] = target: hemagglutinin (HA) of influenza virus H1N1 A/Puerto Rico/8/34-MA (influenza A virus)
# [14] = target: hemagglutinin (HA) of influenza virus H3N2 A/HK/1/68-MA (influenza A virus)
# [15] = target: hemagglutinin (HA) of influenza virus B/Florida/04/06 (Yamagata) (influenza B virus)
# [16] = target: HA of H1N1 A/Brisbane/59/07 (influenza A virus)
# [17] = target: HA of H1N1 A/New Caledonia/20/1999 (influenza A virus)
# [18] = target: HA of H1N1 A/Puerto Rico/8/34-MA (influenza A virus)
# [19] = target: HA of B/Florida/04/2006 (Yamagata) (influenza B virus)
# [20] = target: HA of H5N1 A/PR8 H5N1 HK97 (influenza A virus)
# [21] = target: hemagglutinin (HA) of influenza B/Lee/40 (Old) (influenza B virus) (UniProt P03460)
# [22] = target: hemagglutinin (HA) of influenza B/Florida/04/06 (Yamagata) (influenza B virus)
# [23] = target: hemagglutinin (HA) of influenza B/Malaysia/2506/04 (Victoria) (influenza B virus)
# [24] = target: hemagglutinin (HA) of influenza B/Massachusetts/02/12 (Yamagata) (influenza B virus)
# [25] = target: hemagglutinin (HA) of influenza B/Harbin/7/94 (Yamagata) (influenza B virus)
binder,measurement,setting,value
B1,VNA titer,[1],> 1000 nM
same,VNA titer,[2],> 1000 nM
same,VNA titer,[3],9.3 nM
same,VNA titer,[4],304 nM
B2,VNA IC50,[5],126 nM
same,VNA IC50,[6],20 nM
same,VNA IC50,[7],6 nM
same,VNA IC50,[8],318 nM
B3,VNA IC50,[5],251 nM
same,VNA IC50,[6],20 nM
same,VNA IC50,[9],3 nM
same,VNA IC50,[7],4 nM
same,VNA IC50,[8],632 nM
B4,VNA IC50,[5],126 nM
same,VNA IC50,[6],20 nM
same,VNA IC50,[9],3 nM
same,VNA IC50,[7],8 nM
same,VNA IC50,[8],274 nM
B5,VNA IC50,[6],20 nM
same,VNA IC50,[9],3 nM
same,VNA IC50,[7],8 nM
same,VNA IC50,[8],632 nM
B6,VNA IC50,[5],503 nM
same,VNA IC50,[6],16 nM
same,VNA IC50,[7],5 nM
same,VNA IC50,[8],949 nM
B7,VNA IC50,[6],15 nM
same,VNA IC50,[9],3 nM
same,VNA IC50,[7],3 nM
same,VNA IC50,[8],> 1000 nM
B8,VNA IC50,[5],101 nM
same,VNA IC50,[6],6 nM
same,VNA IC50,[7],3 nM
same,VNA IC50,[8],253 nM
B9,average neutralization titer,[10],35.4 nM
same,average neutralization titer,[11],23.8 nM
same,average neutralization titer,[12],33.6 nM
same,average neutralization titer,[13],12.8 nM
same,average neutralization titer,[14],28.3 nM
same,average neutralization titer,[15],14.1 nM
B10,VNA titer,[1],34.7 nM
same,VNA titer,[2],> 1000 nM
same,VNA titer,[16],> 1000 nM
same,VNA titer,[3],> 1000 nM
same,VNA titer,[17],> 1000 nM
B11,VNA titer,[1],115 nM
same,VNA titer,[2],> 1000 nM
same,VNA titer,[16],> 1000 nM
same,VNA titer,[3],19.1 nM
same,VNA titer,[17],> 1000 nM
same,VNA titer,[4],> 1000 nM
B12,VNA titer,[1],366 nM
same,VNA titer,[18],> 1000 nM
same,VNA titer,[19],> 1000 nM
same,VNA titer,[2],> 1000 nM
same,VNA titer,[3],15.3 nM
same,VNA titer,[17],> 1000 nM
same,VNA titer,[4],> 1000 nM
B13,VNA titer,[1],> 1000 nM
same,VNA titer,[18],8.7 nM
same,VNA titer,[2],84.7 nM
same,VNA titer,[3],> 1000 nM
same,VNA titer,[20],66.8 nM
same,VNA titer,[17],22.1 nM
same,VNA titer,[4],> 1000 nM
B14,VNA IC50,[21],32 nM
same,VNA IC50,[22],659 nM
same,VNA IC50,[23],40 nM
same,VNA IC50,[24],795 nM
same,VNA IC50,[25],> 1000 nM
B15,average neutralization titer,[10],30.3 nM
same,average neutralization titer,[11],20.4 nM
same,average neutralization titer,[12],34.3 nM
same,average neutralization titer,[13],12.2 nM
same,average neutralization titer,[14],57.7 nM
same,average neutralization titer,[15],2.1 nM
